# Measurements from IntAct's records for PubMed 19858347.
# B1: Killer cell immunoglobulin-like receptor 2DS4 (Homo sapiens), P43632 (parent)
# chain: MSLMVIIMACVGFFLLQGAWPQEGVHRKPSFLALPGHLVKSEETVILQCWSDVMFEHFLLHREGKFNNTLHLIGEHHDGVSKANFSIGPMMPVLAGTYRCYGSVPHSPYQLSAPSDPLDMVIIGLYEKPSLSAQPGPTVQAGENVTLSCSSRSSYDMYHLSREGEAHERRLPAVRSINGTFQADFPLGPATHGGTYRCFGSFRDAPYEWSNSSDPLLVSVTGNPSNSWPSPTEPSSKTGNPRHLHVLIGTSVVKIPFTILLFFLLHRWCSDKKNAAVMDQEPAGNRTVNSEDSDEQDHQEVSYA
# B2: Killer cell immunoglobulin-like receptor 2DL1 (Homo sapiens), P43626 (parent)
# chain: MSLLVVSMACVGFFLLQGAWPHEGVHRKPSLLAHPGRLVKSEETVILQCWSDVMFEHFLLHREGMFNDTLRLIGEHHDGVSKANFSISRMTQDLAGTYRCYGSVTHSPYQVSAPSDPLDIVIIGLYEKPSLSAQLGPTVLAGENVTLSCSSRSSYDMYHLSREGEAHERRLPAGPKVNGTFQADFPLGPATHGGTYRCFGSFHDSPYEWSKSSDPLLVSVTGNPSNSWPSPTEPSSKTGNPRHLHILIGTSVVIILFILLFFLLHRWCSNKKNAAVMDQESAGNRTANSEDSDEQDPQEVTYTQLNHCVFTQRKITRPSQRPKTPPTDIIVYTELPNAESRSKVVSCP
# B3: Killer cell immunoglobulin-like receptor 2DL3 (Homo sapiens), P43628 (parent)
# chain: MSLMVVSMVCVGFFLLQGAWPHEGVHRKPSLLAHPGPLVKSEETVILQCWSDVRFQHFLLHREGKFKDTLHLIGEHHDGVSKANFSIGPMMQDLAGTYRCYGSVTHSPYQLSAPSDPLDIVITGLYEKPSLSAQPGPTVLAGESVTLSCSSRSSYDMYHLSREGEAHERRFSAGPKVNGTFQADFPLGPATHGGTYRCFGSFRDSPYEWSNSSDPLLVSVTGNPSNSWPSPTEPSSETGNPRHLHVLIGTSVVIILFILLLFFLLHRWCCNKKNAVVMDQEPAGNRTVNREDSDEQDPQEVTYAQLNHCVFTQRKITRPSQRPKTPPTDIIVYTELPNAEP
# Variants of: B1
# Details: with hlac_human HLA-C
row,Variant,effect of a mutation on the interaction
1,A205S,with no effect
2,K65M,disrupting interaction strength
3,P92Q;V93D,with no effect

# Variants of: B1
# Details: with hlac_human HLA-C
# Remark: another data set of the same source
# Target sequence in this assay (P10321 whole entry): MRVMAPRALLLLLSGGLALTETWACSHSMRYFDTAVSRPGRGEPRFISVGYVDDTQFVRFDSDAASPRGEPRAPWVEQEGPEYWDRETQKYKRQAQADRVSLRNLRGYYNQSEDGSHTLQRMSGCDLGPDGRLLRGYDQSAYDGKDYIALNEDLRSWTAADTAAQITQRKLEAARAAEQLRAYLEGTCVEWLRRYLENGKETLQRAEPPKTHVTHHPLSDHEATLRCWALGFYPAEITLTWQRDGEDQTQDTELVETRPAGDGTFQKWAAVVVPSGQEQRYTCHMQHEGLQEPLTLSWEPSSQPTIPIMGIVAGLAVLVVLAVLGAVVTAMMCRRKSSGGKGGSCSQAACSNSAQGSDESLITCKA
row,Variant,effect of a mutation on the interaction
1,A205S,decreasing interaction strength
2,K65M,decreasing interaction strength
3,P92Q;V93D,decreasing interaction strength
4,I123T,decreasing interaction strength

# Variants of: B1
# Details: with hlab_human HLA-B
# Target sequence in this assay (P01889 whole entry): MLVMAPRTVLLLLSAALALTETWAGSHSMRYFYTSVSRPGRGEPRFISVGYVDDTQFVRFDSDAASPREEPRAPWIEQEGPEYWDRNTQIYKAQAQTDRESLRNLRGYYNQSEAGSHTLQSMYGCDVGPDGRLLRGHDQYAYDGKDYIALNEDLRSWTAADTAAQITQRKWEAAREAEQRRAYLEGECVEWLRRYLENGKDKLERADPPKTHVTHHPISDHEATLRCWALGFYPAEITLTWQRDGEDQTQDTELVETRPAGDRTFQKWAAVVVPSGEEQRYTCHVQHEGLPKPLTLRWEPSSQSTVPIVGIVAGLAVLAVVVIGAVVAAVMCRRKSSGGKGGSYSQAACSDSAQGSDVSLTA
row,Variant,effect of a mutation on the interaction
1,A205S,causing an interaction
2,P92Q;V93D,causing an interaction

# Variants of: B1
# Details: with hlac_human HLA-C
# Remark: another data set of the same source
# Target sequence in this assay (P10321 whole entry): as the sequence (P10321 whole entry) above
row,Variant,effect of a mutation on the interaction
1,A205S,causing an interaction
2,P92Q;V93D,causing an interaction

# Variants of: B1
# Details: with hlac_human HLA-C
# Remark: another data set of the same source
# Target sequence in this assay (P10321 whole entry): as above
row,Variant,effect of a mutation on the interaction
1,K65M,with no effect

# Variants of: B1
# Details: with hlac_human HLA-C
# Remark: another data set of the same source
# Target sequence in this assay (P10321 whole entry): as above
row,Variant,effect of a mutation on the interaction
1,K65M,causing an interaction
2,P92Q;V93D,increasing interaction strength

# Variants of: B2
# Details: with hlac_human HLA-C
# Target sequence in this assay (P10321 whole entry): as above
row,Variant,effect of a mutation on the interaction
1,Q92P,increasing interaction strength
2,Q92P;D93V,decreasing interaction strength
3,Q92P;D93V;T105P,decreasing interaction strength
4,T105P,decreasing interaction strength

# Variants of: B2
# Details: with hlac_human HLA-C
# Remark: another data set of the same source
# Target sequence in this assay (P10321 whole entry): as above
row,Variant,effect of a mutation on the interaction
1,Q92P,decreasing interaction strength

# Variants of: B3
# Details: with hlac_human HLA-C
row,Variant,effect of a mutation on the interaction
1,Q92P,increasing interaction strength
2,Q92P;D93V,decreasing interaction strength
3,Q92P;D93V;T105P,decreasing interaction strength
4,T105P,decreasing interaction strength

# Variants of: B3
# Details: with hlab_human HLA-B
# Target sequence in this assay (P01889 whole entry): as the sequence (P01889 whole entry) above
row,Variant,effect of a mutation on the interaction
1,Q92P,decreasing interaction strength

# Variants of: B3
# Details: with hlac_human HLA-C
# Remark: another data set of the same source
row,Variant,effect of a mutation on the interaction
1,Q92P;D93V,disrupting interaction strength
2,Q92P;D93V;T105P,disrupting interaction strength
3,T105P,disrupting interaction strength
